Test: yeast display, Sf9 membrane polyspecificity reagent, FACS + sequencing; frameworks hold sequencing errors
In short: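 Galactose-induced (36–48 hours) yeast carrying a synthetic nanobody display library were exposed to 10% biotinylated, detergent-solubilized Sf9 membrane reagent at 4 °C for 1 hour. FACS followed streptavidin microbead enrichment, using low and high (top ~1%) gates for expression (anti-HA) and reagent binding (streptavidin). Colony PCR, MiSeq 2 × 250 sequencing and CDR-length filtering followed. Labels for polyreactivity reflect the gate of origin.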

| Sequence | polyreactivity (PSR sort gate) |
| --- | --- |
| QVQLVESGGGLVQAGGSLRLSCAASGSIFVKYAMGWYRQAPGKERELVASITGRGGSTYYADSVKGRFTISRDNAKNTVYLQMNSLKPEDTAVYYCAARVASRHGWHNYWGQGSQVTVSS | high polyreactivity |
| QVQLVESGGGLVQAGGSLRLSCAASGSIFVLNAMGWYRQAPGKERELVAAITNVGSTYYADSVKGRFTISRDNAKNTVYLQMNSLKPEDTAVYYCNAVVATSKYTDYYWGQGTQVTVSS | low polyreactivity |
| QVQLVESGGGLVQAGGSLRLSCAASGSIFVLYAMGWYRQAPGKEREFVAAISRSGGSTYYADSVKGRFTISRDNAKNTVYLQMNSLKPEDTAVYYCAASSRLNRWNYYAFDYWGQGTQVTVSS | high polyreactivity |
| QVQLVESGGGLVQAGGSLRLSCAASGSIFVPYAMGWYRQAPGKERELVAAISNGDSTYYADSVKGRFTISRDNGKNTVYLQMNSLNPEDTAVYYCAAPYAGWRDGGDYWGQGTQVTVSS | low polyreactivity |
| QVQLVESGGGLVQAGGSLRLSCAASGSIFVPYAMGWYRQAPGKERELVAAISRGGDTNYADSVKGRFTISRDNAKNTVYLQMNSLKPEDTAVYYCNRARHQSSRWHGGYYYWGQGTQVTVSS | low polyreactivity |
| QVQLVESGGGLVQAGGSLRLSCAASGSIFVPYAMGWYRQAPGKERELVAAISSGGGRTYYADSVKGRFTIARDNAKNTVYLQMNSLKPEDTAVYYCAARYYIGYGHRTYGYDYWGQGTQVTVSS | high polyreactivity |
| QVQLVESGGGLVQAGGSLRLSCAASGSIFVPYAMGWYRQAPGKERELVAAISSRGGSTYYADSVKGRFTISRDTAKNTVYLQMNSLKPEDTAVYYCNTEISRNYYWALYGYWGQGTQVTVSS | low polyreactivity |
| QVQLVESGGGLVQAGGSLRLSCAASGSIFVPYAMGWYRQAPGKERELVAAITRSSGSTYYADSVKGRFTISRDNAKNTVYVQMNSLKPQDSAVYYCAADFLLEFVYWGQGTQLTVSS | low polyreactivity |
| QVQLVESGGGLVQAGGSLRLSCAASGSIFVPYTMGWYTQAPGKERELVASISYSGGTTYYADSVKGRFTISRDNAKNTVYLQMNSLKPEDTAVYYCAADWDESFSYRRYRHYDYWGQGTQVTVSS | low polyreactivity |
| QVQLVESGGGLVQAGGSLRLSCAASGSIFVQYAMGWYRQAPGKERELVATISDDGSTNYADSVKGRFTISRDNAKNTVYLQMNSLKPEDTAVYYCAADTYYYVGADDYWGQGTQVTVSS | low polyreactivity |
| QVQLVESGGGLVQAGGSLRLSCAASGSIFVRNAMGWCRQAPGKERELVAAITARGGSTYYADSVKGRFTISRDNAKNTVYLQMNSLKPEDTAVYYCARSYYYRGWAQWRYDYWGQGTQVTVSS | high polyreactivity |
| QVQLVESGGGLVQAGGSLRLSCAASGSIFVRNAMGWYRPAPGKERELVADITSRGSSTYYADSVKGRFTISRDNAKNTVYLQMNSLKPEDTAVYYCNAVRYYVRTYIYRHDRGMDYWGQGTQVTVSS | low polyreactivity |
| QVQLVESGGGLVQAGGSLRLSCAASGSIFVRNAMGWYRQAPGKEREFVAIRFSGATTYYADSVKGRFTISRDNAKNTVYLQMNSLKPEDTAVYYCAAVARTYGRTSYYWGQGTQVTVSS | high polyreactivity |
| QVQLVESGGGLVQAGGSLRLSCAASGSIFVRNAMGWYRQAPGKERELVAAITYSGSRTYYADSVKGRFTISRDNAKNTVYLQMNSLKPEDTEVYYCAKVRVLVDKWSTFYEYYYWGQGTQVTVSS | low polyreactivity |
| QVQLVESGGGLVQAGGSLRLSCAASGSIFVRNVMGWYRQAPGKERELVAGISWNGGSTFYADSVKGRFTISRDNAKNTVYLQMNSLKPEDTAVDYCATPYGRHGWFYLYDYWGQGTQVTVSS | low polyreactivity |
| QVQLVESGGGLVQAGGSLRLSCAASGSIFVRYATMGWYRQAPGKERELVAAISRSGGSTYYADSVKGRFTISRDNAKNTVYLQMNSLKPEDTAVYYCANVSPSLRASGYDYWGQGTQVTVSS | high polyreactivity |
| QVQLVESGGGLVQAGGSLRLSCAASGSIFVRYTIVWYRQSTWKEMELVAAITSGGRTYYADSVKGRFTISRDNAKNTVYLQMNSLKPEDTAVYYSADVPHIRRYGFYYWGQGTQVTVSS | high polyreactivity |
| QVQLVESGGGLVQAGGSLRLSCAASGSIFVRYTMGWYRQAPGKERELVAAISWGGGSTYYADSVKGRFTISRDNAKNTVYLQMNSLKPEDTAVYYCNKRYIQLYDYWGQGTQVTVSS | low polyreactivity |
| QVQLVESGGGLVQAGGSLRLSCAASGSIFVRYTMGWYRQAPGKERELVAGISSRGGSTYYADSVKGRFTISRDNAKNTVYLQMNSLKPEDTAVYYCAATYFRRVVPGYNYWGQGTQVTVSS | high polyreactivity |
| QVQLVESGGGLVQAGGSLRLSCAASGSIFVSNAMGWYRQAPGKERELVAAITARDFSTYYADSVKGRFTISRDNAKNTVYLEMNSQKPEDTAVYYCAGNSSTYPSDDSYDYWGQGTQVTVSS | low polyreactivity |
| QVQLVESGGGLVQAGGSLRLSCAASGSIFVSNAMGWYRQAPGKERELVAAITARDVSTYYADSVKGRFTISRDNAKNTVYLQMISLKPEDTAVYYCAGNSSTYPSDDSYVYWGQGTQVTVSS | low polyreactivity |

| Sequence | polyreactivity (PSR sort gate) |
| --- | --- |
| QVQLVESGGGLVQAGGSLRLSCAASGSIFVSNAMGWYRQAPGKERELVASISQDGGSTYYADSVKGRFTISRDNAKNTVYLQMNSLKPEDTADYYCAAKAEYYYYNGGTTYLVRYYYWGQGTQVTVSS | low polyreactivity |
| QVQLVESGGGLVQAGGSLRLSCAASGSIFVSNAMGWYRQAPGTERELVAAISGGGSTYYADSVKGRFTISRDNAKNTVFLQMNSLKPEDTAVYYCAKKGGHRTYGYDSWGQGTQVTVSS | low polyreactivity |
| QVQLVESGGGLVQAGGSLRLSCAASGSIFVSYAMGWYRQAPGKEREFVAAITRSGGSTYYADSVKGRFTISRDNAKNTVYLQMNSLKPEDTAVYYCAARSYLGAYRRYYWGQGTQVTVSS | high polyreactivity |
| QVQLVESGGGLVQAGGSLRLSCAASGSIFVSYAMGWYSQAPGKERELVAVISYSGVSTYYADSVKGRFTISRDNAKNTVYLQINSLKPEDTAVYYCATRQYGTRHILKYNYWGQGTQVTVSS | low polyreactivity |
| QVQLVESGGGLVQAGGSLRLSCAASGSIFVTYAMGWYRQAPGKERELVASITGRGGSTYYADSVKGRFTISRDNAKNTVYLQMNSLKPEDTAVYYCAARVASRHGWHNYWGQGTQVSVSS | high polyreactivity |
| QVQLVESGGGLVQAGGSLRLSCAASGSIFVVNGMGWYRQAPGKERELVAAITGDGTTYYADSVKGRFTISRDNAKNTVYLQMNSLKPEDSAVYYCAALFTPALSEYDYWGQGTQVTVSS | high polyreactivity |
| QVQLVESGGGLVQAGGSLRLSCAASGSIFVVYAMGWYRQAPGKERELVAAISWGIGSTYYADSVKGRFTISRDNAKYTVYLQMNSLKPEDTAVYYCAAETDIVLYDYWGQGTQVTVSS | low polyreactivity |
| QVQLVESGGGLVQAGGSLRLSCAASGSIFVVYAMGWYRQAPGKERELVAGISDGDNTNYADSVKGRVTISRDNAKNTVYLQMNSLKPEDTAVYYCNADGTSRNLEGFDYWGQGTQVTVSS | low polyreactivity |
| QVQLVESGGGLVQAGGSLRLSCAASGSIFVVYAMGWYRQAPGKERELVAGISGRDGSTYYADSVKGRFTISRDNGKNTVYLQMNSLKPEDTAVYYSARVYWGQGTQVTVSS | low polyreactivity |
| QVQLVESGGGLVQAGGSLRLSCAASGSIFVVYSMGWYRQAPGKERELVAGISYGDNTNYADSVKGRFTISRDNAKNTVYLQMNSLKPVDTAVYYCNADGTSRNLEGFDYWGQGTQVTVSS | low polyreactivity |
| QVQLVESGGGLVQAGGSLRLSCAASGSIFVYKAMGWYRQAPGKERELVAGITFIGGSTYYADSVKGRFTISRDNAKNTVYLQMNCLKPEDTAVYYCNADVAPGIFYGYDSWGQGTQVTVSS | low polyreactivity |
| QVQLVESGGGLVQAGGSLRLSCAASGSIFVYNAMGRYRQAPGKEREYVAAITYSGGSTYYADSVKGRFTISRDNAKNTVDLQMNSLKPEDTAVYYCAADYFQHVPKYGYWGQGTQVNVSS | low polyreactivity |
| QVQLVESGGGLVQAGGSLRLSCAASGSIFVYNAMGWYRPAPGKERELVAGITLIGGSTYYADSVKGRFTISRDNAKNTVYLQMNSLKPEDTAVYYCAVLVVGSTTQDEPYFSGVEHDYWGQGTQVTVSS | low polyreactivity |
| QVQLVESGGGLVQAGGSLRLSCAASGSIFVYNAMGWYRQAPGKERELVAAIDTVGSTNYADSVKGRFTISRDNAKNTVYLQMNSVKPVDPAVYYCAVVTPYWSFYEQVIPSNYWGQGTQVTVSS | low polyreactivity |
| QVQLVESGGGLVQAGGSLRLSCAASGSIFVYNAMGWYRQAPGKERELVAAISQRGGSTYYADSVKGRFTISRDNAKNTVYLQMNSLKPEDTAVYYCAAAPGDSGDDYWGQGTQVTVSS | low polyreactivity |
| QVQLVESGGGLVQAGGSLRLSCAASGSIFVYNAMGWYRQAPGKERELVAAISQRGGSTYYADSVKGRFTISRDYSKNTVYLQMNSLKPEDTAVYYCAAGPGDSGDDYWGQGTQVTVSS | low polyreactivity |
| QVQLVESGGGLVQAGGSLRLSCAASGSIFVYNAMGWYRQAPGKERELVAGITFIGGSTYYADSVKGRFTISRDTAKNTVYLPMNSLKPEDTAVYYRNADGAPGIFYGYDSWGQGTQVTVSS | low polyreactivity |
| QVQLVESGGGLVQAGGSLRLSCAASGSIFVYNAMGWYRQAPGKEREWVAGITFIGGSTYYADSVKGRFTISRDNEKNTVYLQMNSLKPEDTAFYYCATDLPGGRYYGPYDYWGQGTQVTVSS | low polyreactivity |
| QVQLVESGGGLVQAGGSLRLSCAASGSIFVYNAMGWYRQAPGNERELVAGINYSGGSTYYADSVKGRFTISRDNATNTVYLQMNSLKPEDTAVYSCARRRPYQWPYNYWGQGTQVTVSS | high polyreactivity |
| QVQLVESGGGLVQAGGSLRLSCAASGSIFVYNDMGWYRPAPGKERELVAGIDWSGDRTYADSVKGRFTISRDNAKNTVYLQMNSLKPEDTAVYYCNADEWRWDEIIPYAVDYWGQGTQVTVSS | low polyreactivity |
